Data: publication PMC8887132

T1: YTHDC2 YTH domain WT (Mus musculus, UniProt B2RR83 1353-1436)
T1 sequence: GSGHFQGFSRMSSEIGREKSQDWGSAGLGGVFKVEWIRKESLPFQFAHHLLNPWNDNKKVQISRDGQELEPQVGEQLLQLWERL


Molecular target: T1, YTHDC2 YTH domain WT
Test: fluorescence anisotropy

| Binder | Kd |
| --- | --- |
| CCGGACUGU (ssRNA) [unmodified RNA probe] | 54 ± 26 µM |
| CCGGACUGU (ssRNA, m6A at position 5) [m6A-modified RNA probe] | 4.1 ± 1.4 µM |
